Source: publication PMC4878094
One block for each substance: values may come before it.

Tests used:
Experiment in all cases: single-filament TIRF microscopy of microtubule growth
[1] = molecular target: recombinant α/βIIB-tail-III tubulin heterodimer (human) (UniProt P68363)
[2] = molecular target: recombinant α/βIIB tubulin heterodimer (human) (UniProt P68363)
[3] = molecular target: recombinant α/βIII-tail-IIB tubulin heterodimer (human) (UniProt P68363)

koff [1]: 5.5 s⁻¹
kon [1]: 2e+06 M⁻¹ s⁻¹
Substance: recombinant α/βIIB-tail-III tubulin heterodimer (from UniProt P68363-1 1-451; Q9BVA1 1-427; Q13509 428-450) (complex)

koff [2]: 2.6 s⁻¹
kon [2]: 1.9e+06 M⁻¹ s⁻¹
Substance: recombinant α/βIIB tubulin heterodimer (from UniProt P68363-1 1-451; Q9BVA1 1-445) (complex)

koff [3]: 2.4 s⁻¹
kon [3]: 1.8e+06 M⁻¹ s⁻¹
Substance: recombinant α/βIII-tail-IIB tubulin heterodimer (from UniProt P68363-1 1-451; Q13509 1-427; Q9BVA1 428-445) (complex)
